In US20240116985A1 (published 2024):
Starred links: 1 amine or outer side, 2 acyl side, 3 side chain; linkers in the order of their positions; H or OH if unused. Positions of bridges follow the written chain, without caps; N, C: chain ends. Non-standard residues stand in square brackets, D forms with d. Primed or numbered codes have the meaning given here. PyrS2(3) = (S)-3-amino-1-((pent-4-en-1-yloxy)carbonyl)pyrrolidine-3-carboxylic acid, stapling residue, C=CCCCOC(=O)N1CC[C@@](N[*:1])(C(=O)[*:2])C1; PyrS2″ = (S)-3-amino-1-((pent-4-en-1-yloxy)carbonyl)pyrrolidine-3-carboxylic acid (stapling residue), C=CCCCOC(=O)N1CC[C@@](N[*:1])(C(=O)[*:2])C1; TfeGA = (S)-2-amino-3-((carboxymethyl)(2,2,2-trifluoroethyl)amino)propanoic acid, O=C([C@H](CN(CC(=O)[*:3])CC(F)(F)F)N[*:1])[*:2]; B5(3) = 2,2-bis(4-pentenyl)glycine (stitching residue), C=CCCCC(CCCC=C)(N[*:1])C(=O)[*:2]; B5″ = 2,2-bis(4-pentenyl)glycine, stitching residue, C=CCCCC(CCCC=C)(N[*:1])C(=O)[*:2]; Bta = N[C@@H](Cc1csc2ccccc12)C(=O)O; αAllylPro = C=CC[C@@]1(C(=O)O)CCCN1; tBuAla = CC(C)(C)C[C@H](N)C(=O)O; 3Thi = N[C@@H](Cc1ccsc1)C(=O)O

T1: beta-catenin (Homo sapiens (Human), UniProt P35222 1-781)
T1 sequence: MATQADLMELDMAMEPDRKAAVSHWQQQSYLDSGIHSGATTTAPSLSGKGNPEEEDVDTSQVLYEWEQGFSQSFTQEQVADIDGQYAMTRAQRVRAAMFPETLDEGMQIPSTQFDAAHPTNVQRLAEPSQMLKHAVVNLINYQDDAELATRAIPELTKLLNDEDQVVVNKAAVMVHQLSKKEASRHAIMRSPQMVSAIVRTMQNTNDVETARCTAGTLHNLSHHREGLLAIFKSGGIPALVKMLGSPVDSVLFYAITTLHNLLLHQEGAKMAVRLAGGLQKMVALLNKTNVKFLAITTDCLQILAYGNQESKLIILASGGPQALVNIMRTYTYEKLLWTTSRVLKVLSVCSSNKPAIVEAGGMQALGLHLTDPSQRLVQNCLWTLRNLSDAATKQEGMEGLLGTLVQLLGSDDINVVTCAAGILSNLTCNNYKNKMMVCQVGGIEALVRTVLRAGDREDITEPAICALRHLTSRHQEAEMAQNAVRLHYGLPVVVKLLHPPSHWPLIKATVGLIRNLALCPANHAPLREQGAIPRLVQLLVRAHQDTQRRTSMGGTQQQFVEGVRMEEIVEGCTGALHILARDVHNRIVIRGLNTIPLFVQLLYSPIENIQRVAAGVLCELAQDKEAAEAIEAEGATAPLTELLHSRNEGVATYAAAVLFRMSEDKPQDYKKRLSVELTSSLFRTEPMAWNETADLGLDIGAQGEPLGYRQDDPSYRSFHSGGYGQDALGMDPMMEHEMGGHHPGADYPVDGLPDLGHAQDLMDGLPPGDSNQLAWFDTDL


Biological target: T1, beta-catenin
Assay: cell-based or functional assay

Row | DLD1 TCF c2 BrightGlo % Inhibition, 0.625 uM, replicate 1 | DLD1 TCF c2 BrightGlo % Inhibition, 0.625 uM, replicate 2 | DLD1 TCF c2 BrightGlo % Inhibition, 0.625 uM, replicate 3 | DLD1 TCF c2 BrightGlo % Inhibition, 1.25 uM, replicate 1 | DLD1 TCF c2 BrightGlo % Inhibition, 1.25 uM, replicate 2 | DLD1 TCF c2 BrightGlo % Inhibition, 1.25 uM, replicate 3 | DLD1 TCF c2 BrightGlo % Inhibition, 2.5 uM, replicate 1 | DLD1 TCF c2 BrightGlo % Inhibition, 2.5 uM, replicate 2 | DLD1 TCF c2 BrightGlo % Inhibition, 2.5 uM, replicate 3 | DLD1 TCF c2 BrightGlo % Inhibition, 5 uM, replicate 1 | DLD1 TCF c2 BrightGlo % Inhibition, 5 uM, replicate 2 | DLD1 TCF c2 BrightGlo % Inhibition, 5 uM, replicate 3 | DLD1 TCF c2 BrightGlo % Inhibition, 10 uM, replicate 1 | DLD1 TCF c2 BrightGlo % Inhibition, 10 uM, replicate 2 | DLD1 TCF c2 BrightGlo % Inhibition, 10 uM, replicate 3 | DLD1 TCF c2 BrightGlo % Inhibition, 20 uM, replicate 1 | DLD1 TCF c2 BrightGlo % Inhibition, 20 uM, replicate 2 | DLD1 TCF c2 BrightGlo % Inhibition, 20 uM, replicate 3 | Binder
1 | 14.5% | 18.6% | 9.3% | 12.9% | 16.9% | 5.5% | 12.9% | 17.4% | 11.9% | 28.2% | 45.2% | 44.6% | 56.8% | 70.2% | 65.6% | 75.7% | 81.9% | 78.7% | Ac-[αAllylPro]D[tBuAla][B5″]D[TfeGA]AAFN[PyrS2(3)][3Thi][Bta]Q-NH2 (staple 1-4, 4-11) [I-762]
2 | -1.5% | 9.3% | 4.5% | -7% | -2.8% | 6.1% | -8% | -7.6% | -5% | -6.7% | -6.7% | -0.7% | -3.6% | -4.8% | -7.4% | -1.2% | 7.5% | 3.5% | Ac-[αAllylPro]D[tBuAla][B5(3)][3Thi][TfeGA]AAFN[PyrS2″]D[Bta]Q-NH2 (staple 1-4, 4-11) [I-1001]
